# Patent US20160264649A1
# B1: PGT-127 (antibody, V domains shown)
# VH: QPQLQESGPGLVEASETLSLTCTVSGDSTGRCNYFWGWVRQPPGKGLEWIGSLSHCRSYYNTDWTYHNPSLKSRLTISLDTPKNQVFLRLTSVTAADTATYYCARFGGEVLVYRDWPKPAWVDLWGRGTLVVTVS
# VL: QSALTQPPSASGSPGQSITISCTGTSNNFVSWYQQYPGKAPKLVIYEVNKRPSGVPDRFSGSKSGSTASLTVSGLQADDEGVYYCSSLVGNWDVIFGGGTKLTVL
# Experiments:
# Test in all cases: cell-based or functional assay
# [1] = target: HIV-1 Env of pseudovirus isolate MGRM-G-019 (subtype G) (HIV-1)
# [2] = target: HIV-1 Env of isolate MGRM-F1-023 (subtype F) (HIV-1)
# [3] = target: HIV-1 Env of isolate MGRM-F1-017 (subtype F) (HIV-1)
# [4] = target: HIV-1 Env of pseudovirus isolate MGRM-G-004 (subtype G) (HIV-1)
# [5] = target: HIV-1 Env of pseudovirus isolate MGRM-G-011 (subtype G) (HIV-1)
# [6] = target: HIV-1 Env of isolate MGRM-D-011 (subtype D) (HIV-1)
# [7] = target: HIV-1 Env of pseudovirus isolate MGRM-G-025 (subtype G) (HIV-1)
# [8] = target: HIV-1 Env of isolate MGRM-D-001 (subtype D) (HIV-1)
# [9] = target: HIV-1 Env of isolate MGRM-F1-006 (subtype F) (HIV-1)
# [10] = target: HIV-1 Env of isolate 92UG114 (subtype D) (HIV-1)
# [11] = target: HIV-1 Env of isolate MGRM-F1-016 (subtype F) (HIV-1)
# [12] = target: HIV-1 Env of isolate 92UG005 (subtype D) (HIV-1)
# [13] = target: HIV-1 Env of isolate MGRM-F1-020 (subtype F) (HIV-1)
# [14] = target: HIV-1 Env of isolate MGRM-D-002 (subtype D) (HIV-1)
# [15] = target: envelope of aMLV pseudovirus (negative control)
# [16] = target: HIV-1 Env of pseudovirus isolate MGRM-G-027 (subtype G) (HIV-1)
# [17] = target: HIV-1 Env of isolate MGRM-D-012 (subtype D) (HIV-1)
# [18] = target: HIV-1 Env of isolate 92UG046 (subtype D) (HIV-1)
# [19] = target: HIV-1 Env of pseudovirus isolate MGRM-G-001 (subtype G) (HIV-1)
# [20] = target: HIV-1 Env of pseudovirus isolate MGRM-G-014 (subtype G) (HIV-1)
# [21] = target: HIV-1 Env of isolate MGRM-D-018 (subtype D) (HIV-1)
# [22] = target: HIV-1 Env of isolate MGRM-D-019 (subtype D) (HIV-1)
# [23] = target: HIV-1 Env of isolate MGRM-F1-008 (subtype F) (HIV-1)
# [24] = target: HIV-1 Env of isolate MGRM-F1-014 (subtype F) (HIV-1)
# [25] = target: HIV-1 Env of isolate MGRM-D-014 (subtype D) (HIV-1)
# [26] = target: HIV-1 Env of isolate MGRM-D-028 (subtype D) (HIV-1)
# [27] = target: HIV-1 Env of pseudovirus isolate MGRM-G-028 (subtype G) (HIV-1)
# [28] = target: HIV-1 Env of isolate MGRM-D-016 (subtype D) (HIV-1)
# [29] = target: HIV-1 Env of pseudovirus isolate MGRM-G-013 (subtype G) (HIV-1)
# [30] = target: HIV-1 Env of isolate MGRM-D-003 (subtype D) (HIV-1)
# [31] = target: HIV-1 Env of isolate 92UG024 (subtype D) (HIV-1)
# [32] = target: HIV-1 Env of isolate MGRM-D-021 (subtype D) (HIV-1)
# [33] = target: HIV-1 Env of isolate MGRM-D-022 (subtype D) (HIV-1)
# [34] = target: HIV-1 Env of isolate MGRM-D-008 (subtype D) (HIV-1)
# [35] = target: HIV-1 Env of isolate MGRM-F1-022 (subtype F) (HIV-1)
# [36] = target: HIV-1 Env of isolate MGRM-D-029 (subtype D) (HIV-1)
# [37] = target: HIV-1 Env of pseudovirus isolate MGRM-G-006 (subtype G) (HIV-1)
# [38] = target: HIV-1 Env of isolate MGRM-F1-004 (subtype F) (HIV-1)
# [39] = target: HIV-1 Env of isolate 92UG001 (subtype D) (HIV-1)
# [40] = target: HIV-1 Env of isolate MGRM-D-005 (subtype D) (HIV-1)
# [41] = target: HIV-1 Env of isolate MGRM-F1-018 (subtype F) (HIV-1)
# [42] = target: HIV-1 Env of pseudovirus isolate MGRM-G-009 (subtype G) (HIV-1)
# [43] = target: HIV-1 Env of pseudovirus isolate MGRM-G-017 (subtype G) (HIV-1)
# [44] = target: HIV-1 Env of isolate MGRM-D-024 (subtype D) (HIV-1)
# [45] = target: HIV-1 Env of isolate MGRM-D-013 (subtype D) (HIV-1)
# [46] = target: HIV-1 Env of isolate MGRM-F1-012 (subtype F) (HIV-1)
# [47] = target: HIV-1 Env of isolate 98CN006 (subtype CRF08_BC) (HIV-1)
# [48] = target: HIV-1 Env of isolate 98CN009 (subtype CRF07_BC) (HIV-1)
# [49] = target: HIV-1 Env of pseudovirus isolate MGRM-G-024 (subtype G) (HIV-1)
# [50] = target: HIV-1 Env of isolate MGRM-D-026 (subtype D) (HIV-1)
# [51] = target: HIV-1 Env of pseudovirus isolate MGRM-G-016 (subtype G) (HIV-1)
# [52] = target: HIV-1 Env of isolate MGRM-F1-013 (subtype F) (HIV-1)
# [53] = target: HIV-1 Env of isolate MGRM-F1-015 (subtype F) (HIV-1)
# [54] = target: HIV-1 Env of isolate MGRM-D-004 (subtype D) (HIV-1)
# [55] = target: HIV-1 Env of pseudovirus isolate MGRM-G-015 (subtype G) (HIV-1)
# [56] = target: HIV-1 Env of isolate MGRM-D-020 (subtype D) (HIV-1)
# [57] = target: HIV-1 Env of isolate MGRM-F1-021 (subtype F) (HIV-1)
# [58] = target: HIV-1 Env of isolate MGRM-F1-010 (subtype F) (HIV-1)
binder,measurement,setting,value
B1,IC50,[1],0.429 µg/mL
same,IC50 (neutralization),[2],0.119 µg/mL
same,IC50 (neutralization),[3],> 50 µg/mL
same,IC50,[4],> 50 µg/mL
same,IC50,[5],> 50 µg/mL
same,IC50 (neutralization),[6],0.015 µg/mL
same,IC50,[7],19.3 µg/mL
same,IC50 (neutralization),[8],2.23 µg/mL
same,IC50 (neutralization),[9],7.17 µg/mL
same,IC50 (neutralization),[10],7.09 µg/mL
same,IC50 (neutralization),[11],> 50 µg/mL
same,IC50 (neutralization),[12],1.11 µg/mL
same,IC50 (neutralization),[13],> 50 µg/mL
same,IC50 (neutralization),[14],0.6 µg/mL
same,IC50,[15],> 50 µg/mL
same,IC50,[16],> 50 µg/mL
same,IC50 (neutralization),[17],> 50 µg/mL
same,IC50 (neutralization),[18],> 50 µg/mL
same,IC50,[19],0.113 µg/mL
same,IC50,[20],0.009 µg/mL
same,IC50 (neutralization),[21],0.021 µg/mL
same,IC50 (neutralization),[22],> 50 µg/mL
same,IC50 (neutralization),[23],> 50 µg/mL
same,IC50 (neutralization),[24],> 50 µg/mL
same,IC50 (neutralization),[25],0.393 µg/mL
same,IC50 (neutralization),[26],> 50 µg/mL
same,IC50,[27],0.032 µg/mL
same,IC50 (neutralization),[28],> 50 µg/mL
same,IC50,[29],7.7 µg/mL
same,IC50 (neutralization),[30],0.029 µg/mL
same,IC50 (neutralization),[31],> 50 µg/mL
same,IC50 (neutralization),[32],0.056 µg/mL
same,IC50 (neutralization),[33],> 50 µg/mL
same,IC50 (neutralization),[34],> 50 µg/mL
same,IC50 (neutralization),[35],> 50 µg/mL
same,IC50 (neutralization),[36],> 50 µg/mL
same,IC50,[37],> 50 µg/mL
same,IC50 (neutralization),[38],0.068 µg/mL
same,IC50 (neutralization),[39],> 50 µg/mL
same,IC50 (neutralization),[40],6.04 µg/mL
same,IC50 (neutralization),[41],3.59 µg/mL
same,IC50,[42],> 50 µg/mL
same,IC50,[43],> 50 µg/mL
same,IC50 (neutralization),[44],1.95 µg/mL
same,IC50 (neutralization),[45],> 50 µg/mL
same,IC50 (neutralization),[46],> 50 µg/mL
same,IC50 (neutralization),[47],0.067 µg/mL
same,IC50 (neutralization),[48],0.09 µg/mL
same,IC50,[49],> 50 µg/mL
same,IC50 (neutralization),[50],> 50 µg/mL
same,IC50,[51],> 50 µg/mL
same,IC50 (neutralization),[52],> 50 µg/mL
same,IC50 (neutralization),[53],> 50 µg/mL
same,IC50 (neutralization),[54],> 50 µg/mL
same,IC50,[55],> 50 µg/mL
same,IC50 (neutralization),[56],0.015 µg/mL
same,IC50 (neutralization),[57],> 50 µg/mL
same,IC50 (neutralization),[58],> 50 µg/mL
